Our source for the Kd, koff and kon values is patent US20220002417A1 (BAILI BIO CHENGDU PHARMACEUTICAL, published 2022).

This test addresses T1, human PD-L1 extracellular domain (human, UniProt Q9NZQ7 19-238).
T1 construct: also called recombinant PD-L1; recombinant human PD-L1 extracellular domain protein
The test is described as follows: BLI (Octet Red 96), antibody on anti-human Fc biosensor, PD-L1 ECD in solution, 1:1 global fit. Here is the method: The binding kinetics of selected anti-PD-L1 antibodies AB1-AB5 and AB1HU-AB5HU was determined by bio-layer interferometry analysis on a ForteBio Octet Red 96 instrument. First, purified antibodies were produced by protein A chromatography using HEK-293 transiently-transfected antibody supernatants. This assay was performed by immobilizing the purified antibodies to anti-human Fc biosensors. PD-L1 binding to and dissociation from the biosensors was then observed at various concentrations of PD-L1. Specifically, eight anti-human Fc biosensors were placed into wells containing the same purified antibody for 5 minutes. Biosensors were equilibrated in kinetics buffer (Pall ForteBio) for 1 minute to establish a baseline. Association of PD-L1 was observed by placing the biosensors into wells containing various concentrations of human PD-L1 extracellular domain for 5 minutes. Dissociation was measured after transfer of the biosensors into kinetics buffer and monitoring the interferometry signals for 15 minutes. All steps of the assay were performed at 30° C. with shaking at 1000 RPM. The on and off rates (kon and koff) and the equilibrium binding constant KD were determined using the software provided by the manufacturer and were fit using a 1:1 binding global fit model comprising several of the concentrations tested.
On the technique in general: BLI is a label-free optical method that tracks binding on a fibre tip over time.

T1 sequence (Q9NZQ7 19-238 limits assumed): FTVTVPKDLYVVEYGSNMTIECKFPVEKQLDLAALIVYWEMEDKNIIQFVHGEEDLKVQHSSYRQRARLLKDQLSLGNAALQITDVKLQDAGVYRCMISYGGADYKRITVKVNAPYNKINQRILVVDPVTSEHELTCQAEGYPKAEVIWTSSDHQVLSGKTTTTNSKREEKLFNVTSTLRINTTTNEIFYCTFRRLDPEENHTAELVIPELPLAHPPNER

B1: AB2HU (humanized form of antibody AB2) (antibody, human IgG1, kappa, V domains shown)
VH: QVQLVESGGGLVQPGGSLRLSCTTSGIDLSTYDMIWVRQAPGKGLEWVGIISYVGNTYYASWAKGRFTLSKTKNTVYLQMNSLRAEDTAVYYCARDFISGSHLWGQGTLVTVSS
VL: AYDMTQSPSSVSASVGDRVTINCQASESISSFLSWYQQKPGKAPKLLIFSASTLASGVPSRFSGSGSGTDFTLTISSLQPEDFATYYCQQGYSKSNVDNAFGGGTKVEIKR
notes: Humanized, human gamma-1 / kappa constant domains
As usually defined, the Kd is the equilibrium constant for the complex coming apart. Lower therefore signals tighter binding. As usually defined, the koff is a measure of how fast the partners let go of each other. Higher therefore signals a short-lived complex. By kon is commonly meant a measure of how fast the partners come together. Read a high kon as fast association. Molecule B1 had a Kd of 0.366 nM, a koff of 0.000203 s⁻¹ and a kon of 553000 M⁻¹ s⁻¹.

B2: AB5HU (humanized form of antibody AB5) (antibody, human IgG1, kappa, V domains shown)
VH: QSVEESGGGLVQPGGSLRLSCTASGIDLNTYDMIWVRQAPGKGLEWVGIITYSGSRYYANWAKGRFTISKDNTKNTVYLQMNSLRAEDTAVYYCARDYMSGSHLWGQGTLVTVSS
VL: AYDMTQSPSSVSASVGDRVTIKCQASEDIYSFLAWYQQKPGKAPKLLIHSASSLASGVPSRFSGSGSGTDFTLTISSLQPEDFATYYCQQGYGKNNVDNAFGGGTKVEIKR
notes: as for B1
B2: binding was characterised by a dissociation constant (Kd) of 0.401 nM, the off-rate (koff) is 0.000234 s⁻¹ and the kon is 583000 M⁻¹ s⁻¹.

B3: AB5 (rabbit/human chimeric anti-PD-L1 antibody) (antibody, human IgG1, kappa, V domains shown)
VH: QSVEESGGRLVTPGTPLTLTCTVSGIDLNTYDMIWVRQAPGKGLEWIGIITYSGSRYYANWAKGRFTISKTSTTVDLRITSPTTEDTATYFCARDYMSGSHLWGPGTLVTVSS
VL: AYDMTQTPASVEVAVGGTVTIKCQASEDIYSFLAWYQLKPGQSPKLLIHSASSLASGVSSRFKGSGSGTHFTLTISGVECADAATYYCQQGYGKNNVDNAFGGGTEVVVKR
notes: Rabbit variable domains on human IgG1 / human kappa constant domains; also called AB5 CHIMERIC
B3 showed an equilibrium dissociation constant (Kd) of 0.286 nM, a koff of 0.000175 s⁻¹ and an on-rate (kon) of 613000 M⁻¹ s⁻¹.

B4: AB3HU (humanized form of antibody AB3) (antibody, human IgG1, kappa, V domains shown)
VH: EVQLVESGGGLVQPGGSLRLSCAASGFSLSSYWMSWVRQAPGKGLEWIGVIDTNVYIYYANWAKGRFTISRDNSKNTLYLQMNSLRAEDTAVYYCARYVGNNDDYINLWGQGTLVTVSS
VL: DIQMTQSPSTLSASVGDRVTITCQSSQSVYNGYWLSWYQQKPGKAPKLLIYGASTLASGVPSRFSGSGSGTEFTLTISSLQPDDFATYYCLGSYTSSTENSFGGGTKVEIKR
notes: as for B1
As for B4, binding was put at a Kd of 1.81 nM, the off-rate (koff) amounted to 0.000337 s⁻¹ and the association rate constant (kon) was 186000 M⁻¹ s⁻¹.

B5: AB4HU (humanized form of antibody AB4) (antibody, human IgG1, kappa, V domains shown)
VH: EVQLVESGGGLVQPGGSLRLSCTVSGIDLSVINMGWVRQAPGKGLEWIGTITYVGNTYYASWAKGRFTISKTSTTVDLKITSPTTEDTAVYYCARESGTIYYSYFNLWGQGTLVTVSS
VL: AFELTQSPSSLSASVGDRVTIKCQASESISNYLSWYQQIPGKVPKLLIYYASNLASGVPSRFSGSGSGTDFTLTISSLQPEDVATYYCQSYYGGGSAYTFGGGTKVEIKR
notes: as for B1
Turning to B5, the Kd came out at 1.7 nM, the koff came to 0.000766 s⁻¹ and the kon was 451000 M⁻¹ s⁻¹.

B6: AB4 (rabbit/human chimeric anti-PD-L1 antibody) (antibody, human IgG1, kappa, V domains shown)
VH: QSVEESGGRLVTPGTPLTLTCTVSGIDLSVINMGWVRQAPGEGLEWIGTITYVGNTYYASWAKGRFTISKTSTTVDLKITSPTTEDTATYFCARESGTIYYSYFNLWGQGTLVTVSS
VL: AFELTQTPASVSEPVGGTVTIKCQASESISNYLSWYQQIPGQPPNLLIYYASNLASGVPSRFKGSGSGTEFTLTISDLECADAATYYCQSYYGGGSAYTFGGGTEVVVKR
notes: Rabbit variable domains on human IgG1 / human kappa constant domains; also called AB4 CHIMERIC
The molecule B6 gave a dissociation constant Kd of 1.01 nM, a koff of 0.000422 s⁻¹ and a kon of 417000 M⁻¹ s⁻¹.

B7: AB1 (rabbit/human chimeric anti-PD-L1 antibody) (antibody, human IgG1, kappa, V domains shown)
VH: QEQLVESGGGLVQPEGSLTLTCKASGFSFSSGYDMCWVRRAPGKGLEWIACIAAGSAGITYDANWAKGRFTISKTSSTTVTLQMTSLTAADTATYFCARSAFSFDYAMDLWGPGTLVTVSS
VL: DPVLTQTPASVEVAVGGTVTIKCQASQSISSHLNWYQQKPGQPPKLLIYKASTLASGVPSRFKGSGSGTEFTLTISSVQCDNAATYYCQQGYSWGNVDNVFGGGTEVVVKR
notes: Rabbit variable domains on human IgG1 / human kappa constant domains; purified by protein A from HEK-293 supernatants; also called AB1 CHIMERIC
In the case of B7, the equilibrium dissociation constant (Kd) amounted to 0.347 nM, the koff is 0.00015 s⁻¹ and the association rate constant (kon) was 433000 M⁻¹ s⁻¹.

B8: AB3 (rabbit/human chimeric anti-PD-L1 antibody) (antibody, human IgG1, kappa, V domains shown)
VH: QEQLEESGGGLVTPGGTLTLTCTVSGFSLSSYWMSWVRQAPGKGLEWIGVIDTNVYIYYANWAKGRFTISKTSTTVDLKITSPTTEDTATYFCARYVGNNDDYINLWGPGTLVTVSS
VL: AVLTQTPSPVSAAVGGTVSISCQSSQSVYNGYWLSWYQQKPGQPPKLLIYGASTLASGVPSRFKGSGSGTQFTLTINDVQCDDAATYYCLGSYTSSTENSFGGGTEVVVKR
notes: Rabbit variable domains on human IgG1 / human kappa constant domains; also called AB3 CHIMERIC
Regarding B8, binding was put at a Kd of 0.467 nM, the koff stood at 0.000144 s⁻¹ and the kon came out at 308000 M⁻¹ s⁻¹.

B9: AB1HU (humanized form of antibody AB1) (antibody, human IgG1, kappa, V domains shown)
VH: EVQLLESGGGLVQPGGSLRLSCAASGFSFSSGYDMCWVRQAPGKGLEWIACIAAGSAGITYDANWAKGRFTISRDNSKNTLYLQMNSLRAEDTAVYYCARSAFSFDYAMDLWGQGTLVTVSS
VL: DIQMTQSPSTLSASVGDRVTITCQASQSISSHLNWYQQKPGKAPKLLIYKASTLASGVPSRFSGSGSGTEFTLTISSLQPDDFATYYCQQGYSWGNVDNVFGGGTKVEIKR
notes: as for B1
In turn, B9 returned a Kd of 0.422 nM, an off-rate constant (koff) of 0.000239 s⁻¹ and a kon of 568000 M⁻¹ s⁻¹.

B10: AB2 (rabbit/human chimeric anti-PD-L1 antibody) (antibody, human IgG1, kappa, V domains shown)
VH: QSLEESGGRLVTPGTPLTLTCTTSGIDLSTYDMIWVRQAPGKGLEYIGIISYVGNTYYASWAKGRFTLSKTSTTVDLRITSPTTEDTATYFCARDFISGSHLWGPGTLVTVSS
VL: AYDMTQTPASVSAAVGGTVTINCQASESISSFLSWYQQKPGQRPRLLIFSASTLASGVPSRFKGSGSGTEFTLTISGVECADAATYYCQQGYSKSNVDNAFGGGTEVVVKR
notes: Rabbit variable domains on human IgG1 / human kappa constant domains; also called AB2 CHIMERIC
B10 had a dissociation constant (Kd) of 0.379 nM, a koff of 0.000166 s⁻¹ and an association rate constant (kon) of 438000 M⁻¹ s⁻¹.
